The record followed here is the Human Domainome abundance scans (Beltran et al. 2025).

± gives the uncertainty stated by the source.

B1: Proto-oncogene vav, residues 782 to 842; numbered along this chain, P15498 (parent)
chain: KYFGTAKARYDFCARDRSELSLKEGDIIKILNKKGQQGWWRGEIYGRVGWFPANYVEEDYS

The variants in this data set derive from B1. Description: abundance fitness (aPCA) (normalised: wild type 0, dead -1); higher = more abundant; growth selection in yeast, the domain comes from the species named. The conditions noted are these: Homo sapiens.
V48S: the abundance fitness is -0.062 ± 0.059.
Regarding V48E, the abundance fitness is -0.07 ± 0.05.
On to V48K, for which the abundance fitness was -0.071 ± 0.1.
V48A: the abundance fitness is -0.156 ± 0.045.
With K1N, the abundance fitness came to 0.099 ± 0.13.
In the case of I28F, the abundance fitness is -0.816 ± 0.29.
Turning to I28G, the abundance fitness was -0.935 ± 0.2.
For the variant G38W, the abundance fitness is -0.928 ± 0.31.
As for G38P, the abundance fitness is -0.944 ± 0.25.
On to G38F, for which the abundance fitness is -0.82 ± 0.29.
As to G38Q, the abundance fitness is -0.186 ± 0.14.
Turning to L31M, the abundance fitness is -0.366 ± 0.11.
For L31A the value was -0.816 ± 0.16; for L31C, -0.412 ± 0.23.
On to L31Q, for which the abundance fitness was -0.525 ± 0.25.
As for L31W, the abundance fitness is -0.251 ± 0.11.
Take L31F: the abundance fitness is -0.46 ± 0.22.
Consider L31K, for which the abundance fitness was -0.392 ± 0.13.
Regarding G35E, the abundance fitness was -0.165 ± 0.072.
Turning to G35Y, the abundance fitness was -0.643 ± 0.14.
G35W: the abundance fitness is -0.6 ± 0.12.
On to R17L, for which the abundance fitness came out at 0.035 ± 0.065.
With R17C, the abundance fitness was found to be 0.1 ± 0.18.
On to W39S, for which the abundance fitness was -0.599 ± 0.08.
On to W39H, for which the abundance fitness is -0.513 ± 0.2.
As for D26K, the figure is -0.964 ± 0.3; as for F3P, -0.232 ± 0.09; as for F3R, -0.145 ± 0.059.
Turning to F3W, the abundance fitness was -0.166 ± 0.083.
Regarding E43C, the abundance fitness is -0.343 ± 0.1.
As to E43N, the abundance fitness was -0.36 ± 0.17.
Turning to E43Q, the abundance fitness was -0.019 ± 0.12.
For D16P the value was -0.839 ± 0.22.
For D16S, the abundance fitness is 0 ± 0.069.
Consider G25T, for which the abundance fitness was -0.97 ± 0.23.
On to G25P, for which the abundance fitness is -0.615 ± 0.14.
On to Y2I, for which the abundance fitness is -0.097 ± 0.27.
As for K33I, the abundance fitness is -0.44 ± 0.15.
For K33G the value was -0.734 ± 0.11.
Consider K33W, for which the abundance fitness was -0.693 ± 0.11.
In the case of G42Y, the abundance fitness was -0.618 ± 0.26.
Consider G42M, for which the abundance fitness was -0.748 ± 0.15.
In the case of G42R, the abundance fitness was -0.398 ± 0.081.
Turning to G42P, the abundance fitness was -0.916 ± 0.26.
For G46K the value was -0.516 ± 0.12.
For G46L the value was -0.67 ± 0.07.
As to G46M, the abundance fitness was -0.896 ± 0.12.
As for G46E, the figure is -0.311 ± 0.063.
As for K29L, the figure is -0.068 ± 0.053.
With K29V, the abundance fitness was -0.376 ± 0.074.
Turning to K29T, the abundance fitness was -0.103 ± 0.088.
On to K29A, for which the abundance fitness is -0.225 ± 0.089.
Consider D59P, for which the abundance fitness was -0.371 ± 0.11.
Consider D59E, for which the abundance fitness is -0.038 ± 0.1.
As to D59R, the abundance fitness is -0.285 ± 0.081.
Consider N32F, for which the abundance fitness was -0.118 ± 0.092.
For L20N, the abundance fitness was -0.691 ± 0.35.
As for L20M, the figure is -0.756 ± 0.19; as for L20A, -0.768 ± 0.19; as for L20Y, -0.64 ± 0.25.
Take L20W: the abundance fitness was -0.919 ± 0.24.
For S61G the value was -0.194 ± 0.17; for F12K, -1.01 ± 0.44.
For F12R, the abundance fitness is -0.365 ± 0.066.
As for F12T, the figure is -0.952 ± 0.43; as for F12W, -0.114 ± 0.075; as for I27Y, -0.294 ± 0.14.
As for I27L, the abundance fitness was -0.198 ± 0.076.
For the variant I27V, the abundance fitness came out at 0.065 ± 0.07.
In the case of I27S, the abundance fitness is -0.276 ± 0.079.
As to S18Y, the abundance fitness is -0.158 ± 0.14.
With S18L, the abundance fitness is -0.368 ± 0.073.
For the variant W40S, the abundance fitness is -0.785 ± 0.14.
Regarding Y45L, the abundance fitness stood at 0.036 ± 0.043.
On to Y45Q, for which the abundance fitness was found to be 0.169 ± 0.066.
In the case of Y45W, the abundance fitness was -0.101 ± 0.068.
In the case of Y45T, the abundance fitness was -0.021 ± 0.053.
For the variant I44G, the abundance fitness was -0.619 ± 0.096.
As for I44T, the abundance fitness was -0.027 ± 0.095.
In the case of I44R, the abundance fitness is -0.145 ± 0.062.
Turning to I44K, the abundance fitness was -0.239 ± 0.16.
As to R47L, the abundance fitness is -0.493 ± 0.043.
Take R47M: the abundance fitness was -0.393 ± 0.16.
For R47W, the abundance fitness was -0.841 ± 0.11.
As for G49C, the abundance fitness is -0.83 ± 0.49.
For G49T, the abundance fitness is -0.506 ± 0.19.
Take D11H: the abundance fitness was -0.503 ± 0.14.
D11Y: the abundance fitness was -0.441 ± 0.28.
With D11P, the abundance fitness was -0.284 ± 0.1.
As for D11N, the figure is 0.086 ± 0.07; as for R41W, -0.123 ± 0.12.
For the variant R41H, the abundance fitness is -0.113 ± 0.12.
Consider R41C, for which the abundance fitness was -0.002 ± 0.098.
As for L22V, the figure is -0.332 ± 0.12; as for L22A, -0.494 ± 0.12.
On to Y55R, for which the abundance fitness was -0.135 ± 0.057.
For the variant Y55H, the abundance fitness is -0.226 ± 0.14.
Take Y55Q: the abundance fitness is -0.457 ± 0.14.
On to Y55L, for which the abundance fitness amounted to 0.058 ± 0.05.
As to G4W, the abundance fitness is -0.169 ± 0.11.
For G4I the value was -0.238 ± 0.19; for Y10G, -0.177 ± 0.05.
Regarding Y10V, the abundance fitness was -0.184 ± 0.068.
For the variant Y60A, the abundance fitness is -0.079 ± 0.088.
As for Y60V, the abundance fitness is 0.134 ± 0.098.
Turning to Y60H, the abundance fitness worked out at 0.027 ± 0.17.
As to A14T, the abundance fitness was -0.54 ± 0.15.
As for A14Q, the figure is -0.541 ± 0.12; as for A6T, -0.883 ± 0.14.
Consider C13S, for which the abundance fitness stood at 0.028 ± 0.06.
Regarding C13W, the abundance fitness was -0.087 ± 0.089.
As for K7A, the abundance fitness is -0.475 ± 0.1.
Take K7Q: the abundance fitness is -0.093 ± 0.094.
With K7H, the abundance fitness was -0.233 ± 0.21.
As for E24T, the figure is -0.01 ± 0.077; as for Q37W, -0.189 ± 0.12.
Take Q37C: the abundance fitness is -0.02 ± 0.097.
As for Q37I, the figure is -0.292 ± 0.14; as for Q37R, -0.048 ± 0.063.
As for R9M, the abundance fitness is -0.027 ± 0.081.
As for W50K, the figure is -0.559 ± 0.15.
Take E58R: the abundance fitness is -0.336 ± 0.076.
For E58H, the abundance fitness is -0.533 ± 0.31.
Take E58G: the abundance fitness was -0.338 ± 0.082.
As for E58Q, the figure is -0.19 ± 0.17; as for V56I, -0.554 ± 0.14; as for V56C, -0.452 ± 0.13.
For V56W the value was -0.543 ± 0.091; for P52L, -0.89 ± 0.12; for P52S, -0.95 ± 0.15.
Regarding N54R, the abundance fitness is 0.055 ± 0.07.
A53Q: the abundance fitness is -0.243 ± 0.13.
With A53M, the abundance fitness was -0.178 ± 0.11.
For the variant A53D, the abundance fitness is -0.641 ± 0.16.
As for A53L, the abundance fitness was -0.505 ± 0.064.
Turning to A53C, the abundance fitness is -0.078 ± 0.1.
Take A53S: the abundance fitness was -0.082 ± 0.063.
Consider A53F, for which the abundance fitness is -0.472 ± 0.13.
For R15Q the value was -0.26 ± 0.11.
For R15H, the abundance fitness was -0.293 ± 0.31.
R15T: the abundance fitness is -0.181 ± 0.1.
As to R15K, the abundance fitness was -0.169 ± 0.13.
As for R15F, the figure is -0.78 ± 0.23; as for R15P, -0.925 ± 0.37; as for Q36L, -0.045 ± 0.064.
Consider Q36H, for which the abundance fitness was 0.016 ± 0.15.
Take Q36Y: the abundance fitness was -0.219 ± 0.11.
For Q36W, the abundance fitness was -0.156 ± 0.094.
Regarding T5V, the abundance fitness was -0.159 ± 0.065.
In the case of T5R, the abundance fitness was -0.209 ± 0.059.
As for T5I, the figure is -0.248 ± 0.14; as for T5F, 0.168 ± 0.13.
As for T5W, the abundance fitness was -0.178 ± 0.088.
For S21N the value was -0.333 ± 0.16; for S21A, -0.26 ± 0.077.
Take K34H: the abundance fitness was -0.03 ± 0.11.
For K34A the value was -0.013 ± 0.077; for K34P, -0.165 ± 0.079.
Consider K23P, for which the abundance fitness was -0.907 ± 0.25.
Regarding K23H, the abundance fitness is -0.142 ± 0.12.
On to A8W, for which the abundance fitness is -1.04 ± 0.32.
In the case of A8V, the abundance fitness is -0.035 ± 0.069.
As for A8L, the abundance fitness is -0.731 ± 0.14.
For A8Y the value was -0.708 ± 0.38; for E57T, 0.025 ± 0.074; for E57C, -0.284 ± 0.16.
For the variant E57A, the abundance fitness was -0.052 ± 0.074.
